Data published in patent US20230071889A1.

Experiments:
[1] = target: T1, CD132 receptor (Sinobiological 10555-H08B) (UniProt P31785); assay: Biacore, CD132 injected over the CD127/IL-7 complex on the chip
T1 sequence (looked up): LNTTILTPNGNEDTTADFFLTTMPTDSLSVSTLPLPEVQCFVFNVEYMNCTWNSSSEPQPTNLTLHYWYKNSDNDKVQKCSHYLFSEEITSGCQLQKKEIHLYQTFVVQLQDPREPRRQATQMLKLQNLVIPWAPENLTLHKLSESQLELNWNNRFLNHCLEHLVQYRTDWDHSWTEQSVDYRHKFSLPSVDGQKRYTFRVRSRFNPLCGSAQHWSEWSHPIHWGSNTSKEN

[2] = target: T2, CD127 (Sinobiological, 10975-H03H-50) (UniProt P16871); assay: Biacore, CD127 immobilised on CM5 chip; bivalent model
T2 sequence (looked up): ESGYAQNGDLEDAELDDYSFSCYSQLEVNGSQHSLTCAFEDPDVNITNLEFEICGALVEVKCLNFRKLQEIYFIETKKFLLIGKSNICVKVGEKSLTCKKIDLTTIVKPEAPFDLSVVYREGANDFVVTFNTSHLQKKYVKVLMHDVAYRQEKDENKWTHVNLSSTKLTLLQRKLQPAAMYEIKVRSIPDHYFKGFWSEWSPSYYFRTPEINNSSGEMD

[3] = target: T1, CD132 receptor (Sinobiological 10555-H08B); assay: Biacore, CD132 injected over immobilised CD127 + IgG4 alone; steady-state model; baseline, CD127 dimerizes with CD132 in the absence of IL-7

| Kd [1] [nM] | Kd [2] [nM] | Kd [3] [nM] | Substance |
| --- | --- | --- | --- |
| 505 | 6.3 |  | IL-7 fused to Fc domain (IL7-Fc, CHI-HF-22007 Adipogen) (Fc fusion) |
|  |  | 2500 | IgG4 alone (antibody) |
